Data: article doi:10.1101/2020.08.15.252130
Like-named read-outs stand apart in the source and are kept apart here.

T1: LS2 linker-RRM2 (Drosophila melanogaster, UniProt Q9W1T4 204-325)
T1 sequence: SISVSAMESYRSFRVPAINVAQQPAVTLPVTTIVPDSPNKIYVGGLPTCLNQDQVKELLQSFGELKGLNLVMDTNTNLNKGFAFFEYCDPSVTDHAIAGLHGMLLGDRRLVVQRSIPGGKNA


Assays:
Test in all cases: NMR
LS2 RRM1,2 = LS2 RRM1,2 (Drosophila melanogaster, UniProt Q9W1T4 110-325)
LS2 linker-RRM2 = target: T1, LS2 linker-RRM2
LS2 RRM2 = LS2 RRM2 (Drosophila melanogaster, UniProt Q9W1T4 242-319)
LS2 RRM1 [1] = target: T2, LS2 RRM1 (Drosophila melanogaster, UniProt Q9W1T4 110-204)
LS2 RRM1 [2] = target: T2, LS2 RRM1; remark: listed apart in the source

Binder	binding result (LS2 RRM1,2)	binding result (LS2 linker-RRM2)	binding result (LS2 RRM2)	binding result (LS2 RRM1 [1])	binding result (LS2 RRM1 [2])
GGGGAGGAGGGGGGCGUAUGA (structured_RNA) [21-mer G4 RNA]	binds	binds	binds	binds	
CGUAUGA (ssRNA) [7-mer (3' end of 21-mer)]			no binding		
GGGUGGUGGAGGGG (structured_RNA) [14-mer]			no binding		binds
GGUGGUGG (structured_RNA) [8-mer]					binds
